Results on 31 molecules are retold here after article PMC10786891, “Massively parallel profiling of RNA-targeting CRISPR-Cas13d”.

The term Kd denotes the free concentration of one partner at which half of the binding sites on the other are occupied at equilibrium, for simple one-to-one binding. The low end stands for tighter binding, the high end for weaker binding.

The chains are these.
T1: EsCas13d, nuclease-dead (Eubacterium siraeum, UniProt B0MS50, R295A;H300A;R849A;H854A)
T1 sequence: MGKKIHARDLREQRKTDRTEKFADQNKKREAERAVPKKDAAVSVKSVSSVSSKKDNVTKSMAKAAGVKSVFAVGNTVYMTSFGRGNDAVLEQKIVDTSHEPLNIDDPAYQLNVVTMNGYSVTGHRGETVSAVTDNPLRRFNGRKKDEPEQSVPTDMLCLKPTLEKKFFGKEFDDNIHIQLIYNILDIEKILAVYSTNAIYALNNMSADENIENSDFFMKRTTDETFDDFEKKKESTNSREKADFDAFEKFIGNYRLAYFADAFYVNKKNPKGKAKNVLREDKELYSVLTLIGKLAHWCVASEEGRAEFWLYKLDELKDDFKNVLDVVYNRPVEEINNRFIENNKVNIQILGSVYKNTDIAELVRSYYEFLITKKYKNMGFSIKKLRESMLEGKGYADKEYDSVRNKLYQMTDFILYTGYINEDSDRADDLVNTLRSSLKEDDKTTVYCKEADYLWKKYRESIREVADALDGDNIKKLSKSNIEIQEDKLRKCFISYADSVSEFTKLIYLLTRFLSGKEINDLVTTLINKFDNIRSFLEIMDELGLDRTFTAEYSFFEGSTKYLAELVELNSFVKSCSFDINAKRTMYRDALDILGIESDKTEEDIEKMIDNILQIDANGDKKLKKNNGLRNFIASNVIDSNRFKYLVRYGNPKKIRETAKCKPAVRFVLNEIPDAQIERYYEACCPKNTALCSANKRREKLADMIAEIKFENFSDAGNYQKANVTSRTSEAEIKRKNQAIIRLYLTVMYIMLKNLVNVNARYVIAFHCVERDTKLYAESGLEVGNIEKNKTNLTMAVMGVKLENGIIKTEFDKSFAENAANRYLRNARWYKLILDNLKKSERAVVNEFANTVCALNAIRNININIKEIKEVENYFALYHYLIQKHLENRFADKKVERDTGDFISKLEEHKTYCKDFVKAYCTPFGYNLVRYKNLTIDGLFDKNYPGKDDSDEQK

B1: target 2 MT 5'PFS GUU 3'PFS CUC (mixed)
RNA 1: CACCCGUGCAAAAUUGCAGGGGUCUAAAACCUUCUCCAAAUUGUUUCAUCCU
RNA 2: GGGAAUGGAUCCACAUCUACGAAUUCGUUAGGAUGAAACAAUUUGGAGAAGCUCAGAUCGGAAGAGCACACGU
B2: target 2 MT 5'PFS GCU 3'PFS CAG (mixed)
RNA 1: B1 RNA 1
RNA 2: B1 RNA 2 with U28C, U53A, C54G
B3: target 2 MT 5'PFS GGU 3'PFS CUC (mixed)
RNA 1: B1 RNA 1
RNA 2: B1 RNA 2 with U28G
B4: target 2 MT 5'PFS GAC 3'PFS UCG (mixed)
RNA 1: B1 RNA 1
RNA 2: B1 RNA 2 with U28A, U29C, C52U, U53C, C54G
B5: target 2 MT 5'PFS CUU 3'PFS UCU (mixed)
RNA 1: B1 RNA 1
RNA 2: B1 RNA 2 with G27C, C52U, U53C, C54U
B6: target 2 MT 5'PFS GGU 3'PFS CUG (mixed)
RNA 1: B1 RNA 1
RNA 2: B1 RNA 2 with U28G, C54G
B7: target 2 MT 5'PFS CAU 3'PFS UAU (mixed)
RNA 1: B1 RNA 1
RNA 2: B1 RNA 2 with G27C, U28A, C52U, U53A, C54U
B8: target 2 MT 5'PFS UAU 3'PFS CCA (mixed)
RNA 1: B1 RNA 1
RNA 2: B1 RNA 2 with G27U, U28A, U53C, C54A
B9: target 2 MT 5'PFS GAC 3'PFS UCA (mixed)
RNA 1: B1 RNA 1
RNA 2: B1 RNA 2 with U28A, U29C, C52U, U53C, C54A
B10: target 2 MT 5'PFS GUU 3'PFS CUA (mixed)
RNA 1: B1 RNA 1
RNA 2: B1 RNA 2 with C54A
B11: target 2 MT 5'PFS UAU 3'PFS CCG (mixed)
RNA 1: B1 RNA 1
RNA 2: B1 RNA 2 with G27U, U28A, U53C, C54G
B12: target 2 MT 5'PFS GAG 3'PFS CUA (mixed)
RNA 1: B1 RNA 1
RNA 2: B1 RNA 2 with U28A, U29G, C54A
B13: target 2 MT 5'PFS GCA 3'PFS UCU (mixed)
RNA 1: B1 RNA 1
RNA 2: B1 RNA 2 with U28C, U29A, C52U, U53C, C54U
B14: target 2 MT 5'PFS AGG 3'PFS ACG (mixed)
RNA 1: B1 RNA 1
RNA 2: B1 RNA 2 with G27A, U28G, U29G, C52A, U53C, C54G
B15: target 2 MT 5'PFS CUU 3'PFS UCC (mixed)
RNA 1: B1 RNA 1
RNA 2: B1 RNA 2 with G27C, C52U, U53C
B16: target 2 MT 5'PFS CUU 3'PFS UCA (mixed)
RNA 1: B1 RNA 1
RNA 2: B1 RNA 2 with G27C, C52U, U53C, C54A
B17: target 2 MT 5'PFS GCU 3'PFS CAC (mixed)
RNA 1: B1 RNA 1
RNA 2: B1 RNA 2 with U28C, U53A
B18: target 2 MT 5'PFS UUU 3'PFS CCG (mixed)
RNA 1: B1 RNA 1
RNA 2: B1 RNA 2 with G27U, U53C, C54G
B19: target 2 MT 5'PFS GUU 3'PFS CUU (mixed)
RNA 1: B1 RNA 1
RNA 2: B1 RNA 2 with C54U
B20: target 2 MT 5'PFS CAU 3'PFS UAA (mixed)
RNA 1: B1 RNA 1
RNA 2: B1 RNA 2 with G27C, U28A, C52U, U53A, C54A
B21: target 2 MT 5'PFS CUU 3'PFS UCG (mixed)
RNA 1: B1 RNA 1
RNA 2: B1 RNA 2 with G27C, C52U, U53C, C54G
B22: target 2 MT 5'PFS GAG 3'PFS CUC (mixed)
RNA 1: B1 RNA 1
RNA 2: B1 RNA 2 with U28A, U29G
B23: target 2 MT 5'PFS CAU 3'PFS UAC (mixed)
RNA 1: B1 RNA 1
RNA 2: B1 RNA 2 with G27C, U28A, C52U, U53A
B24: target 2 MT 5'PFS GAG 3'PFS CUG (mixed)
RNA 1: B1 RNA 1
RNA 2: B1 RNA 2 with U28A, U29G, C54G
B25: target 2 MT 5'PFS GGU 3'PFS CUA (mixed)
RNA 1: B1 RNA 1
RNA 2: B1 RNA 2 with U28G, C54A
B26: target 2 MT 5'PFS UGG 3'PFS UUC (mixed)
RNA 1: B1 RNA 1
RNA 2: B1 RNA 2 with G27U, U28G, U29G, C52U
B27: target 2 MT 5'PFS CAU 3'PFS UAG (mixed)
RNA 1: B1 RNA 1
RNA 2: B1 RNA 2 with G27C, U28A, C52U, U53A, C54G
B28: target 2 MT 5'PFS AGU 3'PFS AUU (mixed)
RNA 1: B1 RNA 1
RNA 2: B1 RNA 2 with G27A, U28G, C52A, C54U
B29: target 1 G15U,A16G (mixed)
RNA 1: CACCCGUGCAAAAAUGCAGGGGUCUAAAACUGAGCGGAUAACCUCUCUAUGG
RNA 2: GGGAAUGGAUCCACAUCUACGAAUUCGUACCAUAGGUAGGUUAUCCGCUCACCGAGAUCGGAAGAGCACACGU
B30: target 1 insA 3' of 21,insU 3' of 13 (mixed)
RNA 1: B29 RNA 1
RNA 2: GGGAAUGGAUCCACAUCUACGAAUUCGUACCAAUAGAGAGUGUUAUCCGCUCACCGAGAUCGGAAGAGCACACGU
B31: target 1 U3G,U19A (mixed)
RNA 1: B29 RNA 1
RNA 2: B29 RNA 2 with U33A, G36A, U37G, U49G

Numbering of substitutions follows the chain as printed. Numbers in names are those of the source.

The data set deals with T1, EsCas13d, nuclease-dead. The data set is described as follows: crRNA (strand 1, pre-loaded); Mg2+; 40 mM Tris-HCl pH 7.5, 150 mM NaCl, 6 mM MgCl2, 1 mM DTT, 0.1% Tween-20, 0.2 mg/ml BSA; 25 C; 10 min per concentration, then washed. The following applies: tags: His6-TwinStrep-SUMO cleaved; N-terminal SNAP kept (SNAP-Surface 488); label: 3' end held by stalled T7 RNA polymerase.
For B1, the Kd was determined as 20.4 ± 2.3 nM.

B2 registered a Kd of 17 ± 4 nM.

As for B3, the dissociation constant Kd was 17.8 ± 1.9 nM.

With B4, the Kd stood at 15.2 ± 2.7 nM.

B5 displayed an equilibrium dissociation constant (Kd) of 8.1 ± 0.8 nM.

Take B6: the Kd turned out to be 14 ± 1.3 nM.

In the case of B7, binding was put at a Kd of 4 ± 0.4 nM.

As for B8, the affinity, expressed as Kd, was 37 ± 15 nM.

B9 yielded a Kd of 13.8 ± 3.4 nM.

The molecule B10 returned a Kd of 14 ± 1.9 nM.

B11: the Kd came out at 55 ± 8 nM. Compared with the last molecule, the Kd is about 3.9-fold higher.

For the molecule B12, the dissociation constant Kd was found to be 7.9 ± 1.1 nM.

Turning to B13, the affinity, expressed as Kd, was 27 ± 12 nM.

The molecule B14 showed a Kd of 6.7 ± 0.6 nM.

B15 had a Kd of 8.2 ± 0.5 nM.

Regarding B16, the equilibrium dissociation constant (Kd) came out at 4.8 ± 0.5 nM.

For B17, the Kd stood at 10 ± 1.7 nM.

B18: binding was characterised by a dissociation constant (Kd) of 9.8 ± 1 nM.

With B19, the Kd is 16.6 ± 1.6 nM. Against the preceding molecule, the Kd is about 1.7-fold higher.

Turning to B20, the Kd stood at 4.7 ± 0.8 nM.

On to B21, for which the dissociation constant (Kd) came to 4.6 ± 0.4 nM.

Regarding B22, the Kd was 11.3 ± 1.2 nM.

For the molecule B23, the Kd was found to be 3.7 ± 0.7 nM.

As for B24, the Kd amounted to 8.1 ± 0.8 nM.

For B25, the dissociation constant Kd is 12.6 ± 1.4 nM.

In turn, B26 gave an equilibrium dissociation constant (Kd) of 19.2 ± 2.8 nM.

In turn, B27 returned a Kd of 5.6 ± 1.2 nM.

In the case of B28, the Kd is 12.1 ± 2.1 nM.

Consider B29, for which the dissociation constant (Kd) was found to be 27.1 ± 2.2 nM.

In turn, B30 came in with an equilibrium dissociation constant (Kd) of 26 ± 9 nM.

In turn, B31 yielded an equilibrium dissociation constant (Kd) of 45 ± 10 nM.
